We go through 2 molecules from patent publication US20190194660, “INHIBITORS OF SRSF1 TO TREAT NEURODEGENERATIVE DISORDERS” (University of Sheffield, published 2019).

The target in series [1] is SRSF1 (11-196) (Homo sapiens, UniProt Q07955 SEQ:11-196). Briefly: UV crosslinking; no signal without UV. Particulars: tags: hexa-histidine, E. coli BL21(DE3)-RP; label: 5'-32P. An excerpt: (§1) (A,B) Protein:RNA UV crosslinking assays using purified recombinant proteins and 32P-end-radiolabeled G4C2×5 (A) and C4G2×5 (B) repeat RNA probes. Proteins are visualised on SDS-PAGE stained with Coomassie blue (left panels) and covalently linked RNA:protein complexes by autoradiography on Phospholmages (Right panels). UV exposure is indicated by +. […] Nuclei are stained in blue by DAPI. Scale bar: 3 μm;
(§2) We performed in vitro UV-crosslinking assays using purified recombinant proteins and synthetic G4C2×5 and C4G2×5 RNA probes to investigate direct protein:RNA interactions. […] Purified proteins were incubated with 5′-end 32P-radiolabelled G4C2×5 (FIG. 20a) or C4G2×5 (FIG. 20b) RNA probes prior to irradiation with UV where indicated (+) and resolved by SDS-PAGE.

In series [2] the target is ALYREF (Homo sapiens, UniProt Q86V81 Q86V81:1-257). Briefly: UV crosslinking.
Series [3] concerns the target T1, SRSF1-m4 (11-196 quadruple Arg to Ala mutant) (Homo sapiens, UniProt Q07955 SEQ:2-187).
T1 chain: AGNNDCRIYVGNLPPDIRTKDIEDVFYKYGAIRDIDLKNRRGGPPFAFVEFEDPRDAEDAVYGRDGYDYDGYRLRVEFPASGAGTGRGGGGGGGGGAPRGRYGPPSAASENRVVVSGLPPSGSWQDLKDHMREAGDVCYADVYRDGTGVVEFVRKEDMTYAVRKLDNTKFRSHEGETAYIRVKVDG
Briefly: UV crosslinking. Particulars: tags: hexa-histidine, E. coli BL21(DE3)-RP; label: 5'-32P. The text has this:
(§3) Histone H3 is used to check for potential nuclear contamination. (g) Cytoplasmic and total G4C2-repeat sense transcript levels were normalized to Tub84b levels in G4C2×36+Ctrl-RNAi or G4C2×36+SRSF1⁷⁶-RNAi Drosophila in triplicate experiments prior to plotting as a ratio to account for potential changes in mRNA transcription/stability (mean±SEM; paired t-test; N (qRT-PCR reactions)=3).
(§4) N2A cells were transfected with FLAG control, FLAG-tagged SRSF1 or FLAG-tagged SRSF1-m4 and various lengths of sense or antisense repeat transcript constructs prior to fixing of ribonucleoprotein complexes. Cell extracts were then subjected to anti-FLAG immunoprecipitation under the same conditions used in the co-immunoprecipitation of NXF1 (FIG. 6g) prior to the qRT-PCR analysis of SRSF1-crosslinked RNA molecules.

Series [4] has as its target MAGOH (UniProt P61326 P61326:1-146). Briefly: UV crosslinking; negative control protein. Particulars: tags: hexa-histidine, E. coli BL21(DE3)-RP; label: 5'-32P.
From the text: as §1, §2

The target of series [5] is T1, SRSF1-m4 (11-196 quadruple Arg to Ala …). Briefly: UV crosslinking; mutant position printed R93,94,117,118A in text, R90,93,117,118A in FIG. 13. The following applies: tags: hexa-histidine, E. coli BL21(DE3)-RP; label: 5'-32P.
From the text: as §3, §4

Chain of MAGOH (P61326 whole entry, one chain of several): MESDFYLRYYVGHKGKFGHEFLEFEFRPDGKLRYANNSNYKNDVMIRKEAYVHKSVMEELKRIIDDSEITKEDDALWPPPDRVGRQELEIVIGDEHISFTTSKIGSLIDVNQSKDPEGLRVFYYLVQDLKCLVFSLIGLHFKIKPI

As to CCCCGGCCCCGGCCCCGGCCCCGGCCCCGG (ssRNA) [C4G2x5 RNA], the binding result was “binds” in series [1], “binds” in series [2], “binds” in series [3] and “no binding” in series [4].

On to GGGGCCGGGGCCGGGGCCGGGGCCGGGGCC (ssRNA) [G4C2x5 RNA], for which the binding result in series [1] is given as “binds”; in series [2], “binds”; in series [5] it was “binds”; in series [4], “no binding”.
